According to patent US20250320281A1:

Experiments:
Test in all cases: cell-based or functional assay
[1] = target: HIV-1 Env of isolate MGRM-F1-020 (clade F pseudovirus) (HIV-1)
[2] = target: HIV-1 Env of isolate APV17 (HIV-1)
[3] = target: HIV-1 Env of isolate MG RM-D-024 (clade D), on pseudovirus (HIV-1)
[4] = target: HIV-1 Env of isolate MG RM-D-011 (clade D), on pseudovirus (HIV-1)
[5] = target: HIV-1 Env of isolate MG RM-D-020 (clade D), on pseudovirus (HIV-1)
[6] = target: HIV-1 Env of isolate MGRM-C-027 (clade C pseudovirus) (HIV-1)
[7] = target: HIV-1 Env of isolate 92UG046 (clade D), on pseudovirus (HIV-1)
[8] = target: HIV-1 Env of isolate MGRM-F1-004 (clade F), on pseudovirus (HIV-1)
[9] = target: HIV-1 Env of isolate MG RM-D-002 (clade D), on pseudovirus (HIV-1)
[10] = target: HIV-1 Env of isolate MGRM-F1-006 (clade F), on pseudovirus (HIV-1)
[11] = target: HIV-1 Env of pseudovirus MGRM-F1-013 (HIV-1)
[12] = target: HIV-1 92RW020 Env (HIV-1 92RW020)
[13] = target: HIV-1 Env of pseudovirus 92WR026 (subtype A) (HIV-1)
[14] = target: HIV-1 Env of isolate MGRM-F1-010 (clade F), on pseudovirus (HIV-1)
[15] = target: HIV-1 Env of isolate MGRM-Chronic-B-018 (HIV-1)
[16] = target: HIV-1 Env of isolate 92UG114 (clade D), on pseudovirus (HIV-1)
[17] = target: HIV-1 Env of isolate MGRM-F1-016 (clade F), on pseudovirus (HIV-1)
[18] = target: HIV-1 92TH021 Env on pseudotyped virus (HIV-1 isolate 92TH021)
[19] = target: HIV-1 Env of isolate MG RM-D-013 (clade D), on pseudovirus (HIV-1)
[20] = target: HIV-1 Env of isolate MG RM-D-019 (clade D), on pseudovirus (HIV-1)
[21] = target: HIV-1 Env of isolate MGRM-Chronic-B-004 (HIV-1)
[22] = target: HIV-1 Env of isolate MG RM-D-005 (clade D), on pseudovirus (HIV-1)
[23] = target: HIV-1 Env of isolate MGRM-C-026 (clade C pseudovirus) (HIV-1)
[24] = target: HIV-1 Env of isolate MGRM-F1-012 (clade F), on pseudovirus (HIV-1)
[25] = target: HIV-1 Env of pseudovirus 92WR020 (subtype A) (HIV-1)

Question: What does the source list for 1496_C09 (PG9) (TCN-109) (antibody)?
Answer: IC50 (µg/mL), pseudovirus neutralization [1]: 6.4 µg/mL; IC50 (µg/mL), pseudovirus neutralization [2]: 34.8 µg/mL; IC50 (µg/mL), pseudovirus neutralization [3]: 0.038 µg/mL; IC50 (µg/mL), pseudovirus neutralization [4]: 0.071 µg/mL; IC50 (µg/mL), pseudovirus neutralization [5]: 1.67 µg/mL; IC50 (µg/mL), pseudovirus neutralization [6]: 5.36 µg/mL; IC50 (µg/mL), pseudovirus neutralization [7]: 1.86 µg/mL; IC50 (µg/mL), pseudovirus neutralization [8]: 0.175 µg/mL; IC50 (µg/mL), pseudovirus neutralization [9]: 0.021 µg/mL; IC50 (µg/mL), pseudovirus neutralization [10]: 7.25 µg/mL; IC50 (µg/ml), pseudovirus neutralization [11]: 0.56 µg/mL; IC50 (ug/ml), pseudovirus neutralization, TZM-bl assay [12]: 0.1 µg/mL; IC50, pseudovirus neutralization [13]: 0.164 µg/mL; IC50 (µg/mL), pseudovirus neutralization [14]: 0.012 µg/mL; IC50 (µg/mL), pseudovirus neutralization [15]: 0.216 µg/mL; IC50 (µg/mL), pseudovirus neutralization [16]: 40.6 µg/mL; IC50 (µg/mL), pseudovirus neutralization [17]: 0.518 µg/mL; Neutralizing Antibody Assay: IC50; Virus/Ab Incubation 1 hour [18]: 0.0612 µg/mL; Neutralizing Antibody Assay: IC50; Virus/Ab Incubation 18 hour [18]: 0.0571 µg/mL; IC50 (µg/mL), pseudovirus neutralization [19]: 0.021 µg/mL; IC50 (µg/mL), pseudovirus neutralization [20]: 0.038 µg/mL; IC50 (µg/mL), pseudovirus neutralization [21]: 0.533 µg/mL; IC50 (µg/mL), pseudovirus neutralization [22]: 1.8 µg/mL; IC50 (µg/mL), pseudovirus neutralization [23]: 0.06 µg/mL; IC50 (µg/mL), pseudovirus neutralization [24]: 0.023 µg/mL; IC50, pseudovirus neutralization [25]: 0.141 µg/mL
